The text below walks through data of publication PMC5853512, “Arabidopsis MKK10-MPK6 mediates red-light-regulated opening of seedling cotyledons through phosphorylation of PIF3” (Journal of Experimental Botany, 2017).

The assay has as its target T1, GST-PIF3 (Arabidopsis thaliana, UniProt O80536 1-524).
T1 construct: coding region with an NdeI site before the first ATG and an XhoI site at its 3' end, NdeI/XhoI fragment cloned into pGEX4T-2; source: E. coli BL21, purified (Glutathione Sepharose 4B)
T1 sequence (looked up): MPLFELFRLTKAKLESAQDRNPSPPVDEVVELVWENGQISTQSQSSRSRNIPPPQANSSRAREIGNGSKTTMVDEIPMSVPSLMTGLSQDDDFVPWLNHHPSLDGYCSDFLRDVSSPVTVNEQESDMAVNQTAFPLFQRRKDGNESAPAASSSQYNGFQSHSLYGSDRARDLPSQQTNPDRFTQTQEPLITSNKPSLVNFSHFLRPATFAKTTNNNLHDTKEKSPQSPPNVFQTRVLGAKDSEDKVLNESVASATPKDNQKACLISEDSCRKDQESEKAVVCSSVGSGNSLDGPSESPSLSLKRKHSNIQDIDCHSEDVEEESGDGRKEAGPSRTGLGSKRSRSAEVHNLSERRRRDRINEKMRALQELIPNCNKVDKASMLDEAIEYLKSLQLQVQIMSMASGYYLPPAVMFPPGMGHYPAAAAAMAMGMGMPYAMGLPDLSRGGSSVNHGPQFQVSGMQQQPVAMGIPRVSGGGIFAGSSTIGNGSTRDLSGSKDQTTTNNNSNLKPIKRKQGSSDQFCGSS
Nature of the assay: pull-down; GST or GST-PIF3 bound to Glutathione Sepharose 4B beads, incubated with His-MPK6 in 50 mM Tris-HCl pH 7.5, 100 mM NaCl, 0.02% Triton X-100 at 4 °C for 2 h; immunoblot with anti-GST and anti-His. As to conditions: both partners purified. On the technique in general: In western blotting, separated proteins are transferred to a membrane and probed.

B1: His-MPK6 (enzyme, Arabidopsis thaliana, UniProt Q39026 1-395, looked up)
chain: MDGGSGQPAADTEMTEAPGGFPAAAPSPQMPGIENIPATLSHGGRFIQYNIFGNIFEVTAKYKPPIMPIGKGAYGIVCSAMNSETNESVAIKKIANAFDNKIDAKRTLREIKLLRHMDHENIVAIRDIIPPPLRNAFNDVYIAYELMDTDLHQIIRSNQALSEEHCQYFLYQILRGLKYIHSANVLHRDLKPSNLLLNANCDLKICDFGLARVTSESDFMTEYVVTRWYRAPELLLNSSDYTAAIDVWSVGCIFMELMDRKPLFPGRDHVHQLRLLMELIGTPSEEELEFLNENAKRYIRQLPPYPRQSITDKFPTVHPLAIDLIEKMLTFDPRRRITVLDALAHPYLNSLHDISDEPECTIPFNFDFENHALSEEQMKELIYREALAFNPEYQQ
notes: coding region amplified from seedling cDNA with an NdeI site before the first ATG, NdeI/SalI fragment cloned into pET28a(+); The NdeI site of pET28a(+) would put the His tag at the N-terminus (surmised); source: E. coli BL21, purified (Ni2+-chelating Sepharose Fast Flow)
Consider B1, for which the binding result was “binds”.
